Results on 4 molecules are retold here after US5550213, “Inhibitors of urokinase plasminogen activator” (Rutgers, The State University of New Jersey, dated 1996).

Where a chain is given by its changes, count along the chain named.

To fix the notation:
B1: The PAI-2 derived mutant, 88 (designed binder)
chain: VDCSEYPKPACGRTGHPLCGSDNKTYGNKCNFCNAVVESNGTLTLSHFGKC
B2: The PAI-1 derived mutant, 89 (designed binder)
chain: B1 chain with G12A, T14M, G15A, H16A
B3: The Plasminogen derived mutant, 90 (designed binder)
chain: B1 chain with T14V, G15V, H16G
B4: The Nexin-1 derived mutant, 91 (designed binder)
chain: B1 chain with G12A, T14S, G15S, H16A

For one test, the target named is T1, Urokinase plasminogen activator (Homo sapiens (Human), UniProt P00749). The test is described as follows: inhibition of UK (35 nM) activity on S-2288; Ki as slope of [I]o/(1-a) vs. 1/a.
For orientation: Ki means a measure of affinity in units of concentration, obtained from inhibition or displacement. Regarding B1, the Ki stood at 40 nM. This lies in the double-digit nanomolar range.
Same read-out and setting: to B2 belongs 0.31 nM; to B3, 106 nM; to B4, 120 nM.

The next test concerns the target T1, Urokinase plasminogen activator. Nature of the test: inhibition of UK activity; Ki by non-linear regression (Enzfitter) of free enzyme versus inhibitor concentration. As for the experimental part:
Fractional enzyme activities for each inhibitor-UK interaction of the above discussed inhibitors were determined by the assay method of Empie and Laskowski (Empie, M. W. et al., *Biochem.* 21:2274–2284 (1982)), as adapted from Green and Work (Green, N. M. et al., Biochem. J. 54:347–352 (1953)). The concentration of UK used for these reactions was 35 nM. The reactions were carried out in Buffer C. […] These five mutants include the four detailed above (88, 89, 80, AND 91), and also a mutant with arginine at the P1 site of OM3TKY (P1-Arg). […] The values for PSTI, PAI-1, PAI-2, and Nexin-1 were obtained from Turpeinen, U. et al. (*Biochem. J.* 254:911–914 (1988)), Kruithof, C.K.O. et al. (Thromb.-Haemost. 55::65–68 (1986)), Christensen, U. et al. (Thromb.-Haemost. 48:24–26 (1982)), and Stein, P. E. et al. (*Nature* 347:99–102 (1990)), respectively.
K_i values for the wild-type and mutant inhibitors versus urokinase were also determined by non-linear regression of the following equation: […]
The non-linear regression was done using the program Enzfitter, by Robin Leatherbarrow. E_o represents a total enzyme concentration in the reaction, I_o represents total inhibitor concentration, E is the free enzyme for a given inhibitor concentration and K_i is the equilibrium constant for the inhibitor. E and K_i are the unknowns in the equation, and are solved for during the regression analysis. Enzyme and inhibitor concentrations used were determined as mentioned above.
Molecule B1 showed a Ki of 67.6 nM.
On the same count and under the same terms, to B2 belongs 35.9 nM; to B3, 51.3 nM; to B4, 505 nM.
